According to IntAct's records for PubMed 19940246:

B1: Sigma-O factor regulatory protein RsoA (Bacillus subtilis), C0H3R4 (parent)
chain: MDGQFEQKKKQKDETYDIEHLIACFSPMIRKKLSNTSYQEREDLEQELKIKMFEKADMLLCQDVPGFWEFILYMVDENS
B2: DNA-directed RNA polymerase subunit beta (Bacillus subtilis), P37870 (parent)
chain: MTGQLVQYGRHRQRRSYARISEVLELPNLIEIQTSSYQWFLDEGLREMFQDISPIEDFTGNLSLEFIDYSLGEPKYPVEESKERDVTYSAPLRVKVRLINKETGEVKDQDVFMGDFPIMTDTGTFIINGAERVIVSQLVRSPSVYFSGKVDKNGKKGFTATVIPNRGAWLEYETDAKDVVYVRIDRTRKLPVTVLLRALGFGSDQEILDLIGENEYLRNTLDKDNTENSDKALLEIYERLRPGEPPTVENAKSLLDSRFFDPKRYDLANVGRYKINKKLHIKNRLFNQRLAETLVDPETGEILAEKGQILDRRTLDKVLPYLENGIGFRKLYPNGGVVEDEVTLQSIKIFAPTDQEGEQVINVIGNAYIEEEIKNITPADIISSISYFFNLLHGVGDTDDIDHLGNRRLRSVGELLQNQFRIGLSRMERVVRERMSIQDTNTITPQQLINIRPVIASIKEFFGSSQLSQFMDQTNPLAELTHKRRLSALGPGGLTRERAGMEVRDVHYSHYGRMCPIETPEGPNIGLINSLSSYAKVNRFGFIETPYRRVDPETGKVTGRIDYLTADEEDNYVVAQANARLDDEGAFIDDSIVARFRGENTVVSRNRVDYMDVSPKQVVSAATACIPFLENDDSNRALMGANMQRQAVPLMQPEAPFVGTGMEYVSGKDSGAAVICKHPGIVERVEAKNVWVRRYEEVDGQKVKGNLDKYSLLKFVRSNQGTCYNQRPIVSVGDEVVKGEILADGPSMELGELALGRNVMVGFMTWDGYNYEDAIIMSERLVKDDVYTSIHIEEYESEARDTKLGPEEITRDIPNVGEDALRNLDDRGIIRIGAEVKDGDLLVGKVTPKGVTELTAEERLLHAIFGEKAREVRDTSLRVPHGGGGIIHDVKVFNREDGDELPPGVNQLVRVYIVQKRKISEGDKMAGRHGNKGVISKILPEEDMPYLPDGTPIDIMLNPLGVPSRMNIGQVLELHMGMAARYLGIHIASPVFDGAREEDVWETLEEAGMSRDAKTVLYDGRTGEPFDNRVSVGIMYMIKLAHMVDDKLHARSTGPYSLVTQQPLGGKAQFGGQRFGEMEVWALEAYGAAYTLQEILTVKSDDVVGRVKTYEAIVKGDNVPEPGVPESFKVLIKELQSLGMDVKILSGDEEEIEMRDLEDEEDAKQADGLALSGDEEPEETASADVERDVVTKE
partner: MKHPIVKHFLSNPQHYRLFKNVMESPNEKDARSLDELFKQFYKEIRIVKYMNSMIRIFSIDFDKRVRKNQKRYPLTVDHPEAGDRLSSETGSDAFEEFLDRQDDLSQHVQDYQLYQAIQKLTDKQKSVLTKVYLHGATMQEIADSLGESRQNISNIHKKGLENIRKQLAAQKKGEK

Variants of: B1
Conditions: with rpoc_bacsu rpoC
MDGQFEQKKKQKDETYDIEHLIACFSPMIRKKLSNTSYQEREALEQELKIKMFEKADMLLCQDVPGFWEFILYMVDENS was tested, and the “effect of a mutation on the interaction” value was “decreasing interaction strength”. In the case of MDGQFEQKKKQKDETYDIEHLIACFSPMIRKKLSNTSYQERENLEQELKIKMFEKADMLLCQDVPGFWEFILYMVDENS, the “effect of a mutation on the interaction” value is reported as “decreasing interaction strength”. MDGQFEQKKKQKDETYDIEHLIACFSPMIRKKLSNTSYQEAEDLEQELKIKMFEKADMLLCQDVPGFWEFILYMVDENS was tested, and the “effect of a mutation on the interaction” value was “decreasing interaction”. MDGQFEQKKKQKDETYDIEHLIACFSPMIRKKLSNTSYQEREDLEEELKIKMFEKADMLLCQDVPGFWEFILYMVDENS was tested, and the “effect of a mutation on the interaction” value was “decreasing interaction strength”. For MDGQFEQKKKQKDETYDIEHLIACFSPMIRKKLSNTSYQEREDLEAELKIKMFEKADMLLCQDVPGFWEFILYMVDENS, the “effect of a mutation on the interaction” value was “decreasing interaction strength”. In the case of MDGQFEQKKKQKDETYDIEHLIACFSPMIRKKLSNTSYQEREDEEQELKIKMFEKADMLLCQDVPGFWEFILYMVDENS, the “effect of a mutation on the interaction” value is reported as “decreasing interaction strength”. In the case of MDGQFEQKKKQKDETYDIEHLIACFSPMIRKKLSNTSYQEREDAEQELKIKMFEKADMLLCQDVPGFWEFILYMVDENS, the “effect of a mutation on the interaction” value is reported as “decreasing interaction strength”.

Variants of: B2
Conditions: with sigo_bacsu sigO
With I864K the “effect of a mutation on the interaction” value was “disrupting interaction”. In the case of F865K, the “effect of a mutation on the interaction” value is reported as “decreasing interaction”.
